Experimental data as given in PMC7360481.

Molecular target: Sox2 (Mus musculus, UniProt P48432 1-319)
Assay: EMSA

Chain of Sox2 (P48432 whole entry): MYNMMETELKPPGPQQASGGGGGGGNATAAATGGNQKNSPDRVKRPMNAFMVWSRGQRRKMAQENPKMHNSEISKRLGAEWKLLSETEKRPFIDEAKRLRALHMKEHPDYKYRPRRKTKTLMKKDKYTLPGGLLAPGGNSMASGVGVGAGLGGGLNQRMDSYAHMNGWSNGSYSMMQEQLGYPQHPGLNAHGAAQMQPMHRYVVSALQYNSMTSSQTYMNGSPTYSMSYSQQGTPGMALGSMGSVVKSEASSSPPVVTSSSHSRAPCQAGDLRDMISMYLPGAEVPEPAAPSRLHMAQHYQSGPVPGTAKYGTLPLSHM

B1: RNA/DNA hybrid (DNA:RNA)
RNA: CCUACUACCUGUGCCUUUAAGUACCUUUUCUGUCUUCUA
DNA: TAGAAGACAGAAAAGGTACTCTAAAGGCACAGGTAGTAGG
binding result: no binding
